{
  "source": "paper PMC9314367",
  "target": "Rubisco large subunit CbbL of Cyanobium sp. PCC 7001 (Cyanobium sp. PCC 7001)",
  "assay": "cryo-EM structure; cryo-electron tomography with subtomogram averaging (emClarity) of Rubisco inside isolated native Cyanobium α-carboxysomes in TEMB buffer; 3.8 Å; all Rubiscos and the three concentric layers averaged separately",
  "data": [
    {"substance": "Rubisco large subunit CbbL of Cyanobium sp. PCC 7001 (natural protein)", "values": [
      {"measurement": "stoichiometry N", "value": 8}
    ]}
  ]
}
